Values joined by “and” are separate entries in the source; they are usually repeats but may differ in a detail not shown here. Identical values can stand only once.
Key:
AUC = target: the molecule itself; assay: AUC
STEM mass measurement = target: the molecule itself; assay: STEM mass measurement

B1: T2i88-8-pf self-assembling protein nanoparticle (SAPN) chain (designed binder)
chain: MGHHHHHHASWKWDGGLVPRGSWQTWNAKWDQWSNDWNAWRSDWQAWKDDWAYWTLTWKYGELYSKLAELERRLEELAKFVAAWTLKAAAVDLELAALRRRLEELARGGSGANANPNANPNANPNANP
AUC
  stoichiometry N: ~180 chains per nanoparticle
STEM mass measurement
  stoichiometry N: 195 peptide chains per nanoparticle and ~180 peptide chains per particle

Source: paper PMC4587294 (Nanomedicine, 2015)
